Measured values as given in patent US20230303690A1 (published 2023).
Where a chain is given by its changes, count along the chain named. Where two headings read alike, the source gives them in different places. Each block holds one binder with its values, some of them ahead of it.

How the values were obtained:
[1] = target: T1, LAG3 Protein, Human, Recombinant (His Tag) (Sino Biological Catalog No. 16498-H08H) (human, UniProt P18627 23-450); assay: SPR binning on LAG3-His; competitor BMS
T1 construct: Bought protein; also called hLAG3-His; LAG3-His; not shown: His tag
T1 sequence (looked up): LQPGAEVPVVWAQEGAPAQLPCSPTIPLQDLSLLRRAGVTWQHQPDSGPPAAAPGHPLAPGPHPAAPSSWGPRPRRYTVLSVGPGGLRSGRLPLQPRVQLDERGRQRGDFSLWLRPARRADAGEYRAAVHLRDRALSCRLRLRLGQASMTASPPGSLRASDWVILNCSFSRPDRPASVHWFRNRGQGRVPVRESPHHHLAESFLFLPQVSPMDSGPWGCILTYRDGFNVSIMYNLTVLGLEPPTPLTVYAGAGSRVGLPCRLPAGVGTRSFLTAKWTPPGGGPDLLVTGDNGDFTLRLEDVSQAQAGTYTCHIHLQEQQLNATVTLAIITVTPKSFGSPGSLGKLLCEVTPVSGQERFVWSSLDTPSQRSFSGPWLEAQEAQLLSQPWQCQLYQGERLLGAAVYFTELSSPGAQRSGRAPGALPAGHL
Procedure: (§1) The chip surface was regenerated after each cycle with 25 mM NaOH followed by HBS-EP wash provided in the kit.

[2] = target: T2, human LAG3 expressed on cells (human, UniProt P18627 23-525); assay: cell-based or functional assay
T2 sequence (looked up): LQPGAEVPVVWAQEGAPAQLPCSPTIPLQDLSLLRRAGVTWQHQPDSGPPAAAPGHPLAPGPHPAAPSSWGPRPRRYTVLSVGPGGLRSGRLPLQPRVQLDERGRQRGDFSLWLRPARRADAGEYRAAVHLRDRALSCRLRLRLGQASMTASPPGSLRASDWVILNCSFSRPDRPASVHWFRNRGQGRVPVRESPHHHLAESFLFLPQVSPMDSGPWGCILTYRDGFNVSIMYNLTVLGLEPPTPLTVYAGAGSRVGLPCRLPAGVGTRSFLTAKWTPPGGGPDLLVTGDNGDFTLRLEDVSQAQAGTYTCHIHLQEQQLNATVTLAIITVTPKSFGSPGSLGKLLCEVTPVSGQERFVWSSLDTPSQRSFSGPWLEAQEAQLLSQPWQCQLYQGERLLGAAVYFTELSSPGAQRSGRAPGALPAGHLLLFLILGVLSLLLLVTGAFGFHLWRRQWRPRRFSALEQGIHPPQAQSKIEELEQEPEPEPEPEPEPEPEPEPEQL

[3] = target: T2, human LAG3 expressed on cells; assay: cell-based or functional assay; remark: listed apart in the source
[4] = target: T1, LAG3 Protein, Human, Recombinant (His …); assay: SPR binning on LAG3-His; competitor 20
Procedure: as §1

[5] = target: T1, LAG3 Protein, Human, Recombinant (His …); assay: SPR (Biacore), sdAb captured by anti-human Fc, LAG3-His analyte
Procedure: The binding of the single domain antibodies to recombinant human LAG3 protein (rhLAG3) was examined by Biacore™ assay. […] The coating was carried out according to the manufacturer’s instructions accompanying the kit (Catalog No. BR-1008-39, GE). […] The chip surface was regenerated after each cycle with 25 mM NaOH followed by HBS-EP wash provided in the kit.

[6] = target: T1, LAG3 Protein, Human, Recombinant (His …); assay: SPR binning on LAG3-His; competitor 25
Procedure: as §1

[7] = target: T1, LAG3 Protein, Human, Recombinant (His …); assay: SPR binning on LAG3-His; competitor 73
Procedure: as §1

[8] = target: T1, LAG3 Protein, Human, Recombinant (His …); assay: SPR binning on LAG3-His; competitor 17
Procedure: as §1

[9] = target: T1, LAG3 Protein, Human, Recombinant (His …); assay: SPR binning on LAG3-His; competitor 24
Procedure: as §1

[10] = target: T1, LAG3 Protein, Human, Recombinant (His …); assay: SPR binning on LAG3-His; competitor 18
Procedure: as §1

[11] = target: T1, LAG3 Protein, Human, Recombinant (His …); assay: SPR binning on LAG3-His; competitor 37
Procedure: as §1

[12] = target: T1, LAG3 Protein, Human, Recombinant (His …); assay: SPR binning on LAG3-His; competitor 1
Procedure: as §1

[13] = target: T1, LAG3 Protein, Human, Recombinant (His …); assay: SPR binning on LAG3-His; competitor 21
Procedure: as §1

[14] = target: T1, LAG3 Protein, Human, Recombinant (His …); assay: SPR binning on LAG3-His; competitor 27
Procedure: as §1

[15] = target: T2, human LAG3 expressed on cells; assay: cell-based or functional assay; remark: listed apart in the source

RU [1]: 194 RU
IL-2, % of BMS, at 0.005080526 ug/mL [2]: 10.5%
IL-2, % of BMS, at 0.015241579 ug/mL [2]: 13.7%
IL-2, % of BMS, at 0.045724737 ug/mL [2]: 13.4%
IL-2, % of BMS, at 0.137174211 ug/mL [2]: 21.7%
IL-2, % of BMS, at 0.411522634 ug/mL [2]: 24.6%
IL-2, % of BMS, at 1.234567901 ug/mL [2]: 27.7%
IL-2, % of BMS, at 3.703703704 ug/mL [2]: 32.8%
IL-2, % of BMS, at 11.11111111 ug/mL [2]: 31.7%
IL-2, % of BMS, at 33.33333333 ug/mL [2]: 38.9%
IL-2, % of BMS, at 100 ug/mL [2]: 35%
EC50 for IL-2 rescue, hLAG3 Jurkat T system [3]: 3.41 nM
Efficacy (IL-2 production, BMS = 100%) [3]: 31%
RU [4]: -12.6 RU
Kd [5]: 0.278 nM
koff [5]: 0.00178 s⁻¹
kon [5]: 6.41e+06 M⁻¹ s⁻¹
RU [6]: 179 RU
RU [7]: -19.5 RU
RU [8]: -12 RU
RU [9]: -18.9 RU
RU [10]: -10.3 RU
RU [11]: -17.3 RU
RU [12]: -4.7 RU
RU [13]: -19.1 RU
RU [14]: -14.8 RU
B1: sdAb No. 21 (VHH)
VHH: QLQLVESGGGLVQPGGSLRLSCAASGLTLDGYAIAWFRQAPGKEREGLSCISGTDGSTHYLDSVKGRFTISRDNGKNTMALQMNSLQFGDTAIYYCAARRGSCSGSWTYWGQGTQITVSS
notes: Fc of the tested form not described; also called sdAb 21; not shown: Fc part implied by anti-human Fc capture

RU [1]: 26.9 RU
IL-2, % of BMS, at 0.005080526 ug/mL [2]: 7.39%
IL-2, % of BMS, at 0.015241579 ug/mL [2]: 10.9%
IL-2, % of BMS, at 0.045724737 ug/mL [2]: 12.9%
IL-2, % of BMS, at 0.137174211 ug/mL [2]: 5.27%
IL-2, % of BMS, at 0.411522634 ug/mL [2]: 6.53%
IL-2, % of BMS, at 1.234567901 ug/mL [2]: 15.5%
IL-2, % of BMS, at 3.703703704 ug/mL [2]: 35.1%
IL-2, % of BMS, at 11.11111111 ug/mL [2]: 45.5%
IL-2, % of BMS, at 33.33333333 ug/mL [2]: 61.7%
IL-2, % of BMS, at 100 ug/mL [2]: 60.9%
EC50 for IL-2 rescue, hLAG3 Jurkat T system [3]: 60.6 nM
Efficacy (IL-2 production, BMS = 100%) [3]: 51.9%
RU [4]: -13.4 RU
IL-2, % of BMS, at 0.005080526 ug/mL [15]: 7.39%
IL-2, % of BMS, at 0.015241579 ug/mL [15]: 10.9%
IL-2, % of BMS, at 0.045724737 ug/mL [15]: 12.9%
IL-2, % of BMS, at 0.137174211 ug/mL [15]: 5.27%
IL-2, % of BMS, at 0.411522634 ug/mL [15]: 6.53%
IL-2, % of BMS, at 1.234567901 ug/mL [15]: 15.5%
IL-2, % of BMS, at 3.703703704 ug/mL [15]: 35.1%
IL-2, % of BMS, at 11.11111111 ug/mL [15]: 45.5%
IL-2, % of BMS, at 33.33333333 ug/mL [15]: 61.7%
IL-2, % of BMS, at 100 ug/mL [15]: 60.9%
koff [5]: 3.69e-07 s⁻¹
kon [5]: 2.31e+06 M⁻¹ s⁻¹
RU [6]: 274 RU
RU [7]: -11.1 RU
RU [8]: -14.7 RU
RU [9]: -9.9 RU
RU [10]: -9.1 RU
RU [11]: -8.5 RU
RU [12]: -9.5 RU
RU [13]: -11.4 RU
RU [14]: -5.3 RU
B2: sdAb No. 18 (VHH)
VHH: QVQLVESGGGLVQPGGSLRLSCAASGFTLNEHAIGWFRRAPGKEREGVSCISSSDGSTYYHDSVKGRFNMSRDDAKNSVYLQMSSLKPEDTAIYYCAAALGRDCQGGQWKTSSWGQGTQVTVSS
notes: Fc of the tested form not described; also called sdAb 18; not shown: Fc part implied by anti-human Fc capture

RU [1]: 30.5 RU
IL-2, % of BMS, at 0.005080526 ug/mL [2]: 10.7%
IL-2, % of BMS, at 0.015241579 ug/mL [2]: 2.74%
IL-2, % of BMS, at 0.045724737 ug/mL [2]: 3.44%
IL-2, % of BMS, at 0.137174211 ug/mL [2]: 10.8%
IL-2, % of BMS, at 0.411522634 ug/mL [2]: 1.26%
IL-2, % of BMS, at 1.234567901 ug/mL [2]: 17.8%
IL-2, % of BMS, at 3.703703704 ug/mL [2]: 34.9%
IL-2, % of BMS, at 11.11111111 ug/mL [2]: 47.2%
IL-2, % of BMS, at 33.33333333 ug/mL [2]: 57.7%
IL-2, % of BMS, at 100 ug/mL [2]: 48.2%
EC50 for IL-2 rescue, hLAG3 Jurkat T system [3]: 35.8 nM
Efficacy (IL-2 production, BMS = 100%) [3]: 44.7%
RU [4]: -12.9 RU
Kd [5]: 0.038 nM
koff [5]: 3.39e-05 s⁻¹
kon [5]: 894000 M⁻¹ s⁻¹
RU [6]: 33.2 RU
RU [7]: -11.3 RU
RU [8]: -13.6 RU
RU [9]: -10.1 RU
RU [10]: -11.2 RU
RU [11]: -8.5 RU
RU [12]: -8.8 RU
RU [13]: -12 RU
RU [14]: -6.6 RU
B3: sdAb No. 24 (VHH)
VHH: B2 VHH with V2L, R39Q, N69T, S78T, S84N, P88A
notes: Fc of the tested form not described; also called sdAb 24; not shown: Fc part implied by anti-human Fc capture
